{"source": "paper PMC5559466", "molecular_target": "T1, His6-Sll0649 (OmpR family response regulator) (Synechocystis sp. PCC 6803) (UniProt P72948)", "T1 sequence": "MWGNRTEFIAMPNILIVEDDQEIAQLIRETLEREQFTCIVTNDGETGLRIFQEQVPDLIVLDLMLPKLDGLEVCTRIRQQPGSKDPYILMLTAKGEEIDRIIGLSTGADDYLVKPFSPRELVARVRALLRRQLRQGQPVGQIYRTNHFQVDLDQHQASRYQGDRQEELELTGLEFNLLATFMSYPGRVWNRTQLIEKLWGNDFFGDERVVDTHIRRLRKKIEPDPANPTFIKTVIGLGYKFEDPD", "assay": "EMSA", "details": "EMSA: 20 mM Tris-base pH 7.9, 1 mM DTT, 10 mM MgCl2, 0.2 mg/mL BSA, 5% glycerol, 1 mg/mL poly(dI-dC), about 10 ng probe, 20 min at 25 C, 6% native PAGE"}
{"sequence": "AGCCAGTGGCGATAAGTCAGATCCTAGACCCCGACTTTTTTCCAAAATCAGAATAAATACAAAAAAAAGCCCTCTAAAACAATGACCTTGTCCTGAAAAACTGACACAAAAATTTCATACCGTCGTCATAGCCCTGTCATACTCGTCCCCTACATTAATAAATGTCAGCCCAAGCCGTTTCTTATCGCCACTGGCT (double strand) [Pslr1204 EMSA probe]", "values": [{"measurement": "binding", "value": "no binding"}]}
